Experimental data reported in IntAct's records for PubMed 16525507.

B1: Type II secretion system protein E (Xanthomonas campestris pv. campestris), P31742 (parent)
chain: MEQRSAETRIVEALLERRRLKDTDLVRARQLQAESGMGLLALLGRLGLVSERDHAETCAEVLGLPLVDARQLGDTPPEMLPEVQGLSLRFLKQFHLCPVGERDGRLDLWIADPYDDYAIDAVRLATGLPLLLQVGLRSEIDDLIERWYGQGRSAMGTIVETADGDASSTDDIEALRDLASEAPVIRLVNLVIQHAVELRASDIHIEPFESRLKVRYRVDGVLVEGESPPAKLTAAVISRIKIMAKLNIAERRLPQDGRIMLRVQGKELDLRVSTVPTAHGESVVMRLLDRETVVFDFYKLGFTEDFLPQFRKVLEQPHGIMLVTGPTGSGKTTTLYTALSQLNTSDVKIITVEDPVEYQIEGINQIQAKPQIGLDFANALRSIVRQDPDIIMIGEMRDLETARIAIQSALTGHLVLSTLHTNNAAGGITRLLDMGVEDYLLTSTINGILAQRLVRKLDLANAERYAASPEEIERFDLRRLQPDGEIFLYRPRATAAAPTGYLGRTTIVEFLVMNDELRRAVMRRAGMGEIEQLARKSGMRTMYEDGLSKALRGETTIEEVLRVTEDA
partner: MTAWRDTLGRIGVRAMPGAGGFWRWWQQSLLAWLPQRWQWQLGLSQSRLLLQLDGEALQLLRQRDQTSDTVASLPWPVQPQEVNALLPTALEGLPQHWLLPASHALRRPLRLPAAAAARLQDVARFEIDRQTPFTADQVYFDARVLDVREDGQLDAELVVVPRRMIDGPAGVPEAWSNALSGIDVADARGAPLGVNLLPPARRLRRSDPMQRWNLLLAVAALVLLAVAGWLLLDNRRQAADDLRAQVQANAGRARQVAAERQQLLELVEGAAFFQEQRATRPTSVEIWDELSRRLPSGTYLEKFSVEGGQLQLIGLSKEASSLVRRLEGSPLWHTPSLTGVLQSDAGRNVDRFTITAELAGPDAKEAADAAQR

Variants of: B1
Settings: with gspl_xancp pefL

Question: Which “effect of a mutation on the interaction” value does the source give for K331M here?
Answer: disrupting interaction

Question: How did the “effect of a mutation on the interaction” value turn out when R504A was run?
Answer: disrupting interaction
